{"source": "the RNAGym collection of RNA variant scans (doi:10.1021/acssynbio.7b00057)", "parents": {"B1": {"name": "Pistol ribozyme (parent)", "chain": "GGGUCGUUGUUCCAUAAUCGCGUGGAUAUGGCACGCAAGUUUCUACCGGGCACCGUAAAUGUCCGACUGGAGCCGUUCGGGCGGCUAUAAACAGACCUCAGGCCCGAAGCGUGGCGGCACCUGCCGCCGGUGGUAAAAAAGAUCGGAAGAGCACACGUCU"}}}
{"variants_of": "B1", "assay": "aptazyme ON/OFF ratio, guanine; higher = stronger switching; co-transcriptional cleavage with and without guanine"}
{"variant": "U7C U8C G9U U10G C12U C13A", "aptazyme ON/OFF ratio": 1.1}
{"variant": "G9C U10C U11G C12G C13A", "aptazyme ON/OFF ratio": 1.04}
{"variant": "U7A U8C G9A U10A U11G C13G", "aptazyme ON/OFF ratio": 1.12}
{"variant": "U7A U8G U11C C13A", "aptazyme ON/OFF ratio": 1.51}
{"variant": "U8A G9A U10C C12G C13A", "aptazyme ON/OFF ratio": 1.19}
{"variant": "U7C U8A G9C U11C C12A", "aptazyme ON/OFF ratio": 1.11}
{"variant": "U7A U8C U10C U11G C13U", "aptazyme ON/OFF ratio": 1.23}
{"variant": "U7A U10G U11A C13A", "aptazyme ON/OFF ratio": 1.11}
{"variant": "U7G U8G G9U U10G U11C C12G C13U", "aptazyme ON/OFF ratio": 1.14}
{"variant": "U7G U8G G9U U10G U11C C12G C13G", "aptazyme ON/OFF ratio": 1.05}
{"variant": "U7C U8A U10A U11G C12A C13A", "aptazyme ON/OFF ratio": 1.12}
{"variant": "U7A U8G G9A C12A", "aptazyme ON/OFF ratio": 1.69}
{"variant": "U7C U8A G9U U10G U11C C12A C13G", "aptazyme ON/OFF ratio": 1.16}
{"variant": "U8C G9A", "aptazyme ON/OFF ratio": 1.78}
{"variant": "U8C G9C", "aptazyme ON/OFF ratio": 1.12}
{"variant": "U7C G9C U10A U11A C12A C13G", "aptazyme ON/OFF ratio": 1.08}
{"variant": "U7G G9C U10A U11G C13A", "aptazyme ON/OFF ratio": 1.13}
{"variant": "U7G G9U C12A C13A", "aptazyme ON/OFF ratio": 1.46}
{"variant": "U7C U8C G9A U10A C12G C13G", "aptazyme ON/OFF ratio": 1.27}
{"variant": "U7A G9A U10A", "aptazyme ON/OFF ratio": 1.52}
{"variant": "U7A U8C U10A U11A C12A", "aptazyme ON/OFF ratio": 1.17}
{"variant": "U7C U8C G9A U10G U11A C12A", "aptazyme ON/OFF ratio": 1.37}
{"variant": "U7G U8C G9C U11C C12A C13G", "aptazyme ON/OFF ratio": 1.21}
{"variant": "U7C U8C U10A U11C C13A", "aptazyme ON/OFF ratio": 1.07}
{"variant": "U8G U10C U11C C12A C13A", "aptazyme ON/OFF ratio": 1.1}
{"variant": "U7C G9U U10C U11A C12U C13G", "aptazyme ON/OFF ratio": 1.04}
{"variant": "U7G U8G U10G", "aptazyme ON/OFF ratio": 1.37}
{"variant": "U7A U8G G9A U10A U11C C12G C13G", "aptazyme ON/OFF ratio": 1.08}
{"variant": "U7A U8C G9C U11C C12U C13G", "aptazyme ON/OFF ratio": 1.09}
{"variant": "U7A U8A G9C U10C U11G C12A C13U", "aptazyme ON/OFF ratio": 1.03}
{"variant": "U7G G9U U10C U11C C12G C13A", "aptazyme ON/OFF ratio": 1.17}
{"variant": "U7G U8C G9U U10C U11C C12A C13G", "aptazyme ON/OFF ratio": 1.22}
{"variant": "U7C U8A G9A U10G U11A C12U C13A", "aptazyme ON/OFF ratio": 1.11}
{"variant": "U7A U8A G9C U10A U11A C12U C13A", "aptazyme ON/OFF ratio": 1.2}
{"variant": "U7A U8G U10G U11C C12U C13A", "aptazyme ON/OFF ratio": 0.988}
{"variant": "U7G U8C G9U U10G U11C C12U C13G", "aptazyme ON/OFF ratio": 1.22}
{"variant": "U7A U8A G9U U11G", "aptazyme ON/OFF ratio": 1.36}
{"variant": "U7A U8C G9C U10G U11A", "aptazyme ON/OFF ratio": 1.04}
{"variant": "U7A G9A U10A U11C C12A C13A", "aptazyme ON/OFF ratio": 1.18}
{"variant": "U7G U8A G9U U10G U11C C12G C13G", "aptazyme ON/OFF ratio": 1.03}
{"variant": "U7G G9A U10G C13A", "aptazyme ON/OFF ratio": 1.11}
{"variant": "U7C U8C G9U U10A U11A C12G", "aptazyme ON/OFF ratio": 1.2}
{"variant": "U8G U10A U11C C12G C13A", "aptazyme ON/OFF ratio": 1.13}
{"variant": "U7A U8A G9U U10C U11A C12U C13A", "aptazyme ON/OFF ratio": 1.14}
{"variant": "G9A U10A U11C C13U", "aptazyme ON/OFF ratio": 1.01}
{"variant": "U8C G9C U10A U11A C12G C13U", "aptazyme ON/OFF ratio": 1.12}
{"variant": "U7A G9C U11C C12U C13G", "aptazyme ON/OFF ratio": 1.12}
{"variant": "U10C U11G C12G C13U", "aptazyme ON/OFF ratio": 1.11}
{"variant": "U7C U10G U11C C12A C13G", "aptazyme ON/OFF ratio": 1.11}
{"variant": "U7A G9C U10G C12G C13G", "aptazyme ON/OFF ratio": 1.1}
{"variant": "U7G U8C G9C U10C C12U C13A", "aptazyme ON/OFF ratio": 1.07}
{"variant": "U7C U8C G9C U10G C12G C13U", "aptazyme ON/OFF ratio": 1.1}
{"variant": "U7A U8A U10G U11G C12U C13G", "aptazyme ON/OFF ratio": 1.26}
{"variant": "U7C U8G G9U U11G C12U", "aptazyme ON/OFF ratio": 1.27}
{"variant": "U8C G9U U11C C12A", "aptazyme ON/OFF ratio": 1.12}
{"variant": "U8A G9A U10G U11C C12U C13G", "aptazyme ON/OFF ratio": 1.16}
{"variant": "U7G U8A G9A U10A U11A C13U", "aptazyme ON/OFF ratio": 1.23}
{"variant": "U7G G9A U10G C12U C13G", "aptazyme ON/OFF ratio": 1.11}
{"variant": "U7A U8C G9A C13A", "aptazyme ON/OFF ratio": 1.14}
{"variant": "U7G U8A G9A U10C U11G C13U", "aptazyme ON/OFF ratio": 1.09}
{"variant": "U8A G9A U10A U11C C12A C13U", "aptazyme ON/OFF ratio": 1.25}
{"variant": "U7G U8A G9A U11A C12G", "aptazyme ON/OFF ratio": 1.24}
{"variant": "G9U U10G U11G C12U C13U", "aptazyme ON/OFF ratio": 1.34}
{"variant": "U7C U8C G9U U10G U11C C12G C13A", "aptazyme ON/OFF ratio": 1.08}
{"variant": "U7G U8C U10C U11C C13U", "aptazyme ON/OFF ratio": 1.07}
{"variant": "U7C U8C U11A C12U C13G", "aptazyme ON/OFF ratio": 1.13}
{"variant": "U7C U8C U10C C12A C13U", "aptazyme ON/OFF ratio": 1.35}
{"variant": "U7C U8A G9U U10G C13U", "aptazyme ON/OFF ratio": 1.31}
{"variant": "U8C G9A U11G C12A C13A", "aptazyme ON/OFF ratio": 1.22}
{"variant": "U7A U8A U10G C12A C13A", "aptazyme ON/OFF ratio": 1.21}
{"variant": "U7C U8A U10G U11A C12G C13U", "aptazyme ON/OFF ratio": 1.29}
{"variant": "U7A U8G G9C U10G U11G C12G C13U", "aptazyme ON/OFF ratio": 1.14}
{"variant": "U7A U8C U11C C13U", "aptazyme ON/OFF ratio": 1.17}
{"variant": "U7C U8C U11A C12A", "aptazyme ON/OFF ratio": 1.34}
{"variant": "U7C U8G G9U U10C U11A C12U C13U", "aptazyme ON/OFF ratio": 1.34}
{"variant": "U7A U8C G9U U11C C13A", "aptazyme ON/OFF ratio": 1.04}
{"variant": "U7C U8G G9U U11C C13A", "aptazyme ON/OFF ratio": 1.12}
{"variant": "U7C U8A U10G U11G C12G C13A", "aptazyme ON/OFF ratio": 1.08}
{"variant": "U7A U8A G9C U10C U11A C13U", "aptazyme ON/OFF ratio": 1.13}
{"variant": "U7C U8A G9U U11G C12G", "aptazyme ON/OFF ratio": 1.15}
{"variant": "U7G U8A G9U U10C C12A C13A", "aptazyme ON/OFF ratio": 1.12}
{"variant": "U7A U10C U11C C12A", "aptazyme ON/OFF ratio": 1.1}
{"variant": "U7C U8A G9C U10A U11G C12U C13U", "aptazyme ON/OFF ratio": 1.13}
{"variant": "U7G U8G G9A U10G C12A", "aptazyme ON/OFF ratio": 1.27}
